Data on two molecules can be found in paper PMC11436793.

The target in the series is T1, SBP-UNK ZnF1-6 (30-357) (human, UniProt Q9C0B0 30-357).
T1 sequence: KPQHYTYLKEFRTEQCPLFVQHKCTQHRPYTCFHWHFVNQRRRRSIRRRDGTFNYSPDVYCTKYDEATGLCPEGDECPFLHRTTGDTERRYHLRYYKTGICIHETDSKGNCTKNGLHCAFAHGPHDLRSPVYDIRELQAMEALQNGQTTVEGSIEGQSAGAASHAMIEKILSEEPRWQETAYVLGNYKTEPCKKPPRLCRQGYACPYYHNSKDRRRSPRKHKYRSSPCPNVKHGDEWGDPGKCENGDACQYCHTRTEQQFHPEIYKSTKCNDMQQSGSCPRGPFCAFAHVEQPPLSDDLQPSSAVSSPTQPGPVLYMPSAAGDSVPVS
Briefly: fluorescence polarization.

B1: Chi58-67 gtpb4 FP RNA (ssRNA)
RNA: UUCAUCGCAUUAGACAUUUU
By Kd is commonly meant a measure of binding affinity in units of concentration. A lower Kd goes with tighter binding. For the molecule B1, binding was put at a Kd of 305 nM.

B2: Human GTPB4 FP RNA (ssRNA)
RNA: UACAUCGCAUUAGACAUUUU
On to B2, for which binding was characterised by a dissociation constant (Kd) of 263 nM.
